For three substances, IC50, Kd and Binding affinity drop vs. WT results are on record in patent US20220064286A1.

Experiment [1] deals with human TIGIT-AviFlag-biotin (human) (UniProt Q495A1). Kind of experiment: Block ELISA Human PVR-Fc:Bio-TIGIT-AviFlag (blocked ligand human PVR-Fc).
Experiment [2] addresses mouse TIGIT-His (mouse) (UniProt P86176). The experiment in a line: Block ELISA Mouse PVR-Fc:TIGIT-His (blocked ligand mouse PVR-Fc). (In general: In an ELISA, binding on a coated surface is turned into a signal by an enzyme label.)
In experiment [3] the target is cynomolgus TIGIT-AviFlag-biotin (cynomolgus monkey). Kind of experiment: Block ELISA Cyno PVR-Fc:Bio-TIGIT-AviFlag (blocked ligand cyno PVR-Fc).
Experiment [4] addresses murine TIGIT (murine) (UniProt P86176). The experiment in a line: SPR, monovalent affinity. In general terms: In SPR one partner is held on a chip, and binding of the other changes the refractive index at the surface.
Experiment [5] has as its target human TIGIT protein (human) (UniProt Q495A1). Kind of experiment: SPR, monovalent affinity.
Experiment [6] shares this target. The experiment in a line: SPR (BIACORE), N=2.
Experiment [7] concerns the target cynomolgus monkey (cyno) TIGIT protein (cynomolgus monkey). Kind of experiment: SPR, bivalent affinity.
Experiment [8] addresses human TIGIT protein (human) (UniProt Q495A1). Kind of experiment: SPR, bivalent affinity.
Experiment [9] has the same target. Kind of experiment: SPR (BIACORE) KD normalized to WT, N=2.

Sequence of cynomolgus TIGIT-AviFlag-biotin (cynomolgus monkey) (chain, as listed by the source): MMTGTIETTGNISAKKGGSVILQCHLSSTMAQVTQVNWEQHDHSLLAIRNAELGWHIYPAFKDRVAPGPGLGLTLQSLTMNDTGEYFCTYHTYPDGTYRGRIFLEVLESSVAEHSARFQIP
Sequence of mouse TIGIT-His (mouse) (P86176 29-148 limits assumed): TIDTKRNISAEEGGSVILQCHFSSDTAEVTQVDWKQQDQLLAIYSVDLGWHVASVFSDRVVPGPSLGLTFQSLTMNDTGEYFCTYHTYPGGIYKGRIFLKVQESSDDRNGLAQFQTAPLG
Sequence of human TIGIT-AviFlag-biotin (human) (Q495A1 22-141): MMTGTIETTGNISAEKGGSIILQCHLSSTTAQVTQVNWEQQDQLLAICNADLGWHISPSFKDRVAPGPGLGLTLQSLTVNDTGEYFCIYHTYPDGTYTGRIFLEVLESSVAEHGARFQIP
Sequence of human TIGIT protein (human) (Q495A1 22-141 limits assumed): as the sequence (Q495A1 22-141) above
Sequence of 10A7 Fab (VH): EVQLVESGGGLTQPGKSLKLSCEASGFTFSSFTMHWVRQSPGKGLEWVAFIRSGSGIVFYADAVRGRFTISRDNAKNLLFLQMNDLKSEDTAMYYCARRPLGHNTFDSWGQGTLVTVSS
Sequence of 10A7 Fab (VL): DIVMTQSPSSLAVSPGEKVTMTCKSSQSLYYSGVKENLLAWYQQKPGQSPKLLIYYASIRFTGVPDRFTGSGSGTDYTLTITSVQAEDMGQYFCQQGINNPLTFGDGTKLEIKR
Sequence of 10A7 (antibody) (VH): as the sequence (VH) above
Sequence of 10A7 (antibody) (VL): as the sequence (VL) above
Sequence of cynomolgus monkey (cyno) TIGIT protein (cynomolgus monkey) (chain, as listed by the source): as the sequence (chain, as listed by the source) above
Sequence of murine TIGIT (murine) (P86176 29-148 limits assumed): as the sequence (P86176 29-148 limits assumed) above

As usually defined, the IC50 is the concentration that gives 50% inhibition. Consider 10A7 Fab, for which the IC50 was 21.2 nM in experiment [1], 20.9 nM in [2] and > 133 nM in experiment [3].
10A7 (antibody): the Kd is 0.24 nM in experiment [4]; 24 nM in experiment [5]; 44.7 nM in [6]; 8.22 nM in experiment [7]; 0.54 nM in experiment [8]. For the same substance, the IC50 in experiment [1] is 12.9 nM; in [2], 12.6 nM; in experiment [3] it was 55.7 nM. Besides, the Binding affinity drop vs. WT in [9] is 1 fold.
Regarding xCSF1 Fab control, the IC50 in experiment [1], in experiment [2] and in [3] was > 133 nM each time.
